Reference: patent US20190263863A1 (GENOIMMUNE THERAPEUTICS, published 2019)

B1: wild-type polypeptide FLLGNLSFV (SEQ ID NO:5) (peptide)
peptide: FLLGNLSFV
notes: Made by solid phase peptide synthesis, HPLC purity >90%
B2: mutant polypeptide FLLGNLFFV (SEQ ID NO:1) (peptide)
peptide: FLLGNLFFV
notes: Made by solid phase peptide synthesis, HPLC purity >90%; also called OR4K5 S67F mutant polypeptide
B3: mutant polypeptide's variant FLLGNLFFL (SEQ ID NO:2) (peptide)
peptide: FLLGNLFFL
notes: as for B1
B4: mutant polypeptide's variant FMLGNLFFL (SEQ ID NO:4) (peptide)
peptide: FMLGNLFFL
notes: as for B1
B5: mutant polypeptide's variant FMLGNLFFV (SEQ ID NO:3) (peptide)
peptide: FMLGNLFFV
notes: as for B1

What follows are binders tested against T1, HLA-A0201 on the surface of T2 cells (human) (assay: T2 cell peptide loading assay, 100 uM peptide, anti-HLA-A*02:01 FITC, flow cytometry).
T1 construct: surface HLA-A*02:01 is detected with an anti-HLA-A*02:01 FITC monoclonal antibody after loading with peptide
Protocol: After centrifugation at 200 g for 5 minutes for cell collection, the collected cells were washed with phosphate buffer saline (PBS) buffer twice, before incubated with anti-HLA-A*02:01 FITC monoclonal antibody at 4° C. for 30 minutes. The mean fluorescence intensity of cells was then detected and analyzed by the flow cytometry (BD FACSJazz™) and its software.

Row | Binder | FI (fluorescence index) | Mean fluorescence intensity
1 | B1 | 2.27 | 724
2 | B2 | 2.22 | 713
3 | B3 | 2.17 | 702
4 | B4 | 2.1 | 686
5 | B5 | 2.13 | 694
